For experiment [1], the system named is female C57BL/6 recipient mice. The experiment is described as follows: HY bone marrow transplantation model, chimerism and T cell subtypes by FACS. Type of experiment: in vivo, mouse. The text has this: A transplantation model utilizing male bone marrow (BM) cells from C57BL/6 mice transplanted into female mice of the same starin was used to study whether C1ORF32 ECD-Fc induces immune tolerance. In this model BM cells of the male mouse are rejected by the female recipients due to mismatch in the minor histocompatibility antigen encoded by the Y chromosome (Hya). To allow identification of the male cells in the female mice blood, male mice expressing CD45.1 isotype were selected while the female mice carry CD45.2 isotype. This model provides a tool for testing the effect of potential drugs on induction of tolerance towards the grafted cells.
In this model, C1ORF32 ECD-Fc (SEQ ID NO:42) treatment started one week before bone marrow transplantation and continued for five weeks. Female recipient mice were followed for percentage of CD45.1+ and CD45.2+ cells present within the blood.
Female C57BL/6 recipient mice (CD45.2+) were sub-lethally irradiated with 200 rads/cGy 24 hours before transplantation of either female C57Bl/6 (CD45.1+) or male C57Bl/6 (CD45.1+) 5×10^6 bone marrow cells. Recipient mice were allocated into treatment groups as detailed below (n=6 per group). Treatments were given at 300 ug/dose i.p, 3×/wk starting one week prior to transplantation and continued for 4 weeks following transplantation, giving a total of 15 treatments during this 5 weeks period.
1. Female CD45.1 into female CD45.2 2. Male CD45.1 into female CD45.2+ anti-CD40L (300 ug/dose) (Clone MR-1; BioXCell, Cat#BE0017-1) 3. Male CD45.1 into female CD45.2+C1ORF ECD-Fc (SEQ ID NO:42) (300 ug/dose)2 4. Male CD45.1 into female CD45.2+ Control Ig (mouse IgG2a) (300 ug/dose)
Beginning at 2 weeks following bone marrow transplantation, blood samples from the tail were collected from each mouse once a week for 4 weeks. Approximately 2-3 drops of blood were collected per mouse into 200 ul of PBS+EDTA (50 mM), samples were spun down, and RBCs lysed with ammonium chloride. The cells were washed 3× with PBS, stained with the viability dye Aqua Dead Cell Stain (Invitrogen; Cat#L34957), blocked with Fc Receptor block (anti-mouse CD16/32; eBioscience; Cat#14-0161-86), and stained with anti-mouse CD45.1 APC-Cy7 (eBiosciences; Cat#47-0453-80) and anti-mouse CD45.2 FITC (eBioscience; Cat#11-0454-82). The analysis for chimerism was determined by flow cytometric analysis (on total live cells) for the percentage of CD45.1+ versus CD45.2+ cells present in the blood of female recipient mice.
During weeks 6, 7, and 8 the blood samples were also stained to determine the percentage of CD4+ Teff cells and CD4+ Treg cells present within the blood using the cellular markers CD44, CD25, and FoxP3. Details of the Abs used in the flow panels for weeks 6, 7, and 8 are listed below.

Another experiment has as its system male DBA-1 mice. The experiment is described as follows: Established collagen induced arthritis (CIA), macroscopic and histological scores. Type of experiment: in vivo, mouse. The protocol: Bovine type II collagen (CII) (RUNMC in house production, batch 03-04-08) at a concentration of 2 mg/ml in acetic acid 0.05M was emulsified in equal volumes of Freund's complete adjuvant (2 mg/ml of Mycobacterium tuberculosis strain H37Ra; Difco, Detroit, Mich.).
On day 0, 10-12 week old male DBA-1 mice (Janvier Elevage, France) (n=95) were immunized i.d. at the base of the tail with 100 μg of bovine CII. On day 21, mice received an intraperitoneal booster injection of 50 μg of CII dissolved in phosphate buffered saline (PBS), and the onset of arthritis occurred a few days after this booster.
Joint inflammation in each paw was scored visually, using a scale of 0-2 per paw with a maximal score of 8 per animal: 0=non inflamed, 1=mild inflammation, 1.5=marked inflammation, and 2=severe inflammation. Scoring was performed three times a week.
Treatment was started in established CIA early after onset of disease (i.e. therapeutic regimen), when the macroscopic scores per animal were between 0.25 and 1.25 (on a scale of 0-8). […] Histology was scored for inflammation and destruction on an arbitrary scale of 0-3, for five different parameters: […]
Joints were fixed for at least 4 days in 4% formaldehyde, decalcified in 5% formic acid, and subsequently dehydrated and embedded in paraffin. […] The severity of inflammation in the joints was scored on a scale of 0-3 (0=no cells, 1=mild cellularity, 2=moderate cellularity, and 3=maximal cellularity). […] Depletion of PG was determined using an arbitrary scale of 0-3, ranging from normal, fully stained cartilage to destained cartilage, fully depleted of PGs. Chondrocyte death was scored on a scale of 0-3 ranging from no loss of chondrocyte nuclei to complete empty cartilage surface. The degree of cartilage surface erosion was scored on a scale of 0-3, ranging from no damage to complete loss of articular cartilage. […] Histopathological changes in the joint were scored on three semiserial sections of the joint spaced 70 μm apart. […]

These results are taken from patent publication US20190309044A1, “POLYPEPTIDES AND USES THEREOF AS A DRUG FOR TREATMENT OF AUTOIMMUNE DISORDERS” (Compugen Ltd., priority 2017, published 2019).

B1: C1ORF32 ECD-Fc (SEQ ID NO:42): human-mouse fusion protein: human C1ORF32 ECD fused to mouse immunoglobulin Fc (SEQ ID NO:42) (protein)
chain: LQVTVPDKKKVAMLFQPTVLRCHFSTSSHQPAVVQWKFKSYCQDRMGESLGMSSTRAQSLSKRNLEWDPYLDCLDSRRTVRVVASKQGSTVTLGDFYRGREITIVHDADLQIGKLMWGDSGLYYCIITTPDDLEGKNEDSVELLVLGRTGLLADLLPSFAVEIMGSENLYFQGSGEPRGPTIKPCPPCKCPAPNLLGGPSVFIFPPKIKDVLMISLSPIVTCVVVDVSEDDPDVQISWFVNNVEVHTAQTQTHREDYNSTLRVVSALPIQHQDWMSGKEFKCKVNNKDLPAPIERTISKPKGSVRAPQVYVLPPPEEEMTKKQVTLTCMVTDFMPEDIYVEWTNNGKTELNYKNTEPVLDSDGSYFMYSKLRVEKKNWVERNSYSCSVVHEGLHNHHTTKSFSRTPGK
modifications: Fusion protein human C1ORF32-ECD fused to mouse IgG2a Fc
With B1, the “male CD45.1+ cells in the blood of recipient females” value in experiment [1] (by week 4 post transplantation, maintained until week 8, 300 ug/dose i.p. 3x/wk 5 weeks) was “highly significant number of male CD45.1+ cells were present”. Moreover, in experiment [1] (week 6, vs Control Ig), the “effector/memory CD4+ T cells (CD45.1+/CD4+/CD44hi) in blood” value is “decrease”. Besides, in experiment [1] (week 8, vs Control Ig), the “CD45.2+ and CD4+ T cells within the spleen” value is “lower percentage and number”; the “donor Tregs (FoxP3+CD25+) in blood” value is recorded as “significant increase”; the “donor activated CD4+ T cells (FoxP3-CD25+) in blood” value is given as “decrease”; the “donor effector/memory CD4+ T cells (CD44hi) in blood” value is on record as “significant increase”. Besides, the “recipients' CD45.2+ T cell populations in blood” value in experiment [1] (week 8, vs Control Ig) was “No differences”. In the experiment with male DBA-1 mice (10 mg/kg i.p. 3x/wk 2 wks, p<0.001 vs mIgG2a), the “clinical (macroscopic) scores of arthritis” value is given as “significantly reduced”. Further, in the experiment on male DBA-1 mice (mouse, in vivo), the “overall outcome in three CIA studies” value was “excellent results in two studies and weak results in one study”.
